Results on one molecule are retold here after PMC3686915.

The target in this data set is NFATc2 full length;cJun full length (;, UniProt Q13469-2;P05412 1-921;1-331, |). In words: DNA pull-down, Western blot.

B1: -45 NFAT hairpin (structured_DNA)
DNA: GATAATATTTTTCCAGAATTACACAAATTCTGGAAAAATATTATC
modifications: 5' biotin
Consider B1, for which the binding result is reported as “binds”.
